# Experimental data from patent publication US20250353909A1 (IMCHECK THERAPEUTICS, published 2025).
# Legend:
# [1] = biological target: human BTN3A, endogenous on human cells (PBMCs; Daudi cells) (human) (UniProt O00481); experiment: flow cytometry, human PBMCs Donor 1, from the fitted curve
# [2] = biological target: human BTN3A, endogenous on human cells (PBMCs; Daudi cells) (human) (UniProt O00481); experiment: flow cytometry, human PBMCs Donor 1, PE anti-human secondary
# [3] = biological target: BTN3A1 antigen (Sino Biological cat. no. 15973-H08H) (human) (UniProt O00481); experiment: SPR Biacore T200, single cycle kinetics, culture supernatants
# Sequence of BTN3A1 antigen (Sino Biological cat. no. 15973-H08H) (human) (O00481 30-254 limits assumed): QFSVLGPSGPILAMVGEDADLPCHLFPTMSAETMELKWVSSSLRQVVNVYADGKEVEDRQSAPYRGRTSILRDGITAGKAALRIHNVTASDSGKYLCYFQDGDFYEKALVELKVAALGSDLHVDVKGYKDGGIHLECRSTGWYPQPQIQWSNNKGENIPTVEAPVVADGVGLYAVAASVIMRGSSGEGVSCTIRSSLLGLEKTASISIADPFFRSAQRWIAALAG
# [4] = biological target: cynomolgus BTN3A, endogenous on cynomolgus PBMCs (cynomolgus); experiment: flow cytometry, cynomolgus PBMCs Donor 1, from the fitted curve
# [5] = biological target: cynomolgus BTN3A, endogenous on cynomolgus PBMCs (cynomolgus); experiment: flow cytometry, cynomolgus PBMCs Donor 2, from the fitted curve
# [6] = biological target: cynomolgus BTN3A, endogenous on cynomolgus PBMCs (cynomolgus); experiment: flow cytometry, cynomolgus PBMCs Donor 3, from the fitted curve
# [7] = biological target: cynomolgus BTN3A, endogenous on cynomolgus PBMCs (cynomolgus); experiment: flow cytometry, cynomolgus PBMCs Donor 1, PE anti-human secondary
# [8] = biological target: cynomolgus BTN3A, endogenous on cynomolgus PBMCs (cynomolgus); experiment: flow cytometry, cynomolgus PBMCs Donor 2, PE anti-human secondary
# [9] = biological target: cynomolgus BTN3A, endogenous on cynomolgus PBMCs (cynomolgus); experiment: flow cytometry, cynomolgus PBMCs Donor 3, PE anti-human secondary
# [10] = biological target: BTN3A1 antigen (Sino Biological cat. no. 15973-H08H) (human) (UniProt O00481); experiment: SPR Biacore T200, multi-cycle kinetics, antibody captured on Protein A, BTN3A1 as analyte
# [11] = biological target: T1, human BTN3A, endogenous on human cells (PBMCs; Daudi cells) (human, UniProt O00481 30-513); experiment: cell-based or functional assay
# T1 sequence (O00481 30-513): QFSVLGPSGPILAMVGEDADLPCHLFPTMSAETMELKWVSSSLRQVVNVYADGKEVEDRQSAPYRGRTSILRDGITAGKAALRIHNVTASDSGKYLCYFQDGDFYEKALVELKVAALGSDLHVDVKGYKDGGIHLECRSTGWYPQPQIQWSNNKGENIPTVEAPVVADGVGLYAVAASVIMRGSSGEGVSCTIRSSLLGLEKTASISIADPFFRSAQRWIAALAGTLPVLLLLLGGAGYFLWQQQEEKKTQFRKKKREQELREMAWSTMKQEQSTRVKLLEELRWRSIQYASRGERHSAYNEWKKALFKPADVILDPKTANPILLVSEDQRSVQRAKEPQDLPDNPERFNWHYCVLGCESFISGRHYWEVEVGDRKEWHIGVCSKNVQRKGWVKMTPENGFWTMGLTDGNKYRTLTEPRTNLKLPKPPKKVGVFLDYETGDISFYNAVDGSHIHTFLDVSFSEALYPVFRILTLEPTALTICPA
# [12] = biological target: T1, human BTN3A, endogenous on human cells …; experiment: flow cytometry, human PBMCs Donor 1, PE anti-human secondary
# Protocol: Frozen PBMCs were revived, added to pre-warmed AIM-V (ThermoFisher Scientific, Loughborough, UK) media and counted. Cells were harvested, washed by centrifuging at 500×g for 10 minutes and then resuspended in 1×DPBS, pH 7.4. This step was repeated once and the cells were resuspended in 1×DPBS, pH 7.4 at 1×10⁶ cells/mL. Cells were stained for viable and dead cells by incubating for half an hour in the dark using the LIVE/DEAD® Far Red Dead Cell staining kit (ThermoFisher, Paisley, UK) following the manufacturer's instructions. An aliquot of cells heated at 70° C. for ten minutes was included as the dead cell control. During this staining, a three-point, 1 in 3 titration curve of test antibody (starting from 0.063 μg/mL for the selected antibodies) was prepared in Flow buffer (0.5% BSA, 2 mM EDTA, 1×DPBS, pH 7.4) in a 96-well dilution plate. […] Cells were then analysed on an Attune NxT focusing cytometer (ThermoFisher Scientific, Loughborough, UK), collecting 10,000 events per sample using two laser channels: RL1 for live/dead cells and BL2 for PE. Data was analysed using the instrument statistic tool or FlowJo software (Version 10, FlowJo, LLC, Ashland, USA) gating on the live population of lymphocyte cells. The X-median values from BL2 channel (PE signal) were then calculated and plotted against concentration. […]
# [13] = biological target: T2, BTN3A1 antigen (Sino Biological cat. no. 15973-H08H) (human, UniProt O00481 30-254); experiment: SPR Biacore T200, single cycle kinetics, culture supernatants
# T2 construct: Bought recombinant antigen; also called CD277
# T2 sequence (O00481 30-254 limits assumed): as the sequence (O00481 30-254 limits assumed) above
# Protocol: To assess the binding of all Composite Human Antibody™ variants and to select antibodies with suitable affinity to BTN3A as compared to the original murine antibody, single cycle kinetic analysis was performed on supernatants from transfected cell culture using a Biacore T200 (serial no. 1909913) running Biacore T200 Evaluation Software V2.0.1 (Uppsala, Sweden).
# [14] = biological target: T2, BTN3A1 antigen (Sino Biological cat. …); experiment: SPR Biacore T200, multi-cycle kinetics, antibody captured on Protein A, BTN3A1 as analyte
# Protocol: Multi-cycle kinetic analysis was performed on the six selected humanized 103.2 variants (VH4/Vκ2, VH4/Vκ3, VH4/Vκ4, VH5/Vκ2, VH5Vκ3, VH5/Vκ4) together with the chimeric antibody and the humanized variant, VH1/Vκ1, using a Biacore T200 (serial no. 1909913) instrument running Biacore T200 Evaluation Software V2.0.1 (Uppsala, Sweden).
# Purified antibodies were diluted to a concentration of 2 μg/ml in 2% BSA/PBS. At the start of each cycle, each antibody was captured on the Protein A at a density (RL) of ˜146.5 RU (theoretical value to obtain an RMax of ˜50 RU). Following capture, the surface was allowed to stabilize before injection of the BTN3A1 antigen (Sino Biological cat. no. 15973-H08H). BTN3A1 was titrated in 0.1% BSA/HBS-P+(running buffer) in a two-fold dilution range from 25 to 0.78 nM. The association phase was monitored for 400 seconds and the dissociation phase for 35 minutes (2100 seconds). Kinetic data was obtained using a flow rate of 50 μl/min to minimize any potential mass transfer effects. Regeneration of the Protein A surface was conducted using two injections of 10 mM glycine-HCL pH 1.5 at the end of each cycle. Two blanks (no BTN3A1) and a repeat of a single concentration of the analyte were performed for each tested antibody to check the stability of the surface and analyte over the kinetic cycles. The signal from the reference channel Fc1 was subtracted from that of Fc2, Fc3 and Fc4 to correct for differences in non-specific binding to a reference surface. Additionally, blank runs were subtracted for each Fc to correct any antigen-independent signal variation, such as drift. Sensorgrams were fitted using a one-to-one binding mathematical model with a global RMax parameter and no bulk signal (Constant RI=0 RU).
# The relative KD compared to 103.2 chimeric (VH0/Vκ0) was calculated by dividing the KD of the 103.2 Composite Human Antibody™ variants by that of the chimeric on the same chip.
# [15] = biological target: T3, human BTN3A2 expressed on HEK293 cells (human, UniProt P78410 30-334); experiment: cell microarray (Retrogenix), fixed HEK293 cells, 2 µg/ml antibody
# T3 construct: Cell microarray (Retrogenix); also called BTN3A2 (two isoforms)
# T3 sequence (P78410 30-334 limits assumed): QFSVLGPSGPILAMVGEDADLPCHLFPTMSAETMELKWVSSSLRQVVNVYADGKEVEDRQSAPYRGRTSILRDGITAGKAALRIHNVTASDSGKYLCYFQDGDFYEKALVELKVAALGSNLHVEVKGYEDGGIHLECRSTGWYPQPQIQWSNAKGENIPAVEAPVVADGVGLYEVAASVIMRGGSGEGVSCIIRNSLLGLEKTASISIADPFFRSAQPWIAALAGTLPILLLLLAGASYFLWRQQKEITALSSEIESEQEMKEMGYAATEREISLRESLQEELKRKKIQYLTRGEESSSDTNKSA
# [16] = biological target: T4, human BTN3A3 expressed on HEK293 cells (human, UniProt O00478 30-584); experiment: as above
# T4 construct: Cell microarray (Retrogenix); one isoform of BTN3A3 was a hit; also called BTN3A3 (one isoform)
# T4 sequence (O00478 30-584 limits assumed): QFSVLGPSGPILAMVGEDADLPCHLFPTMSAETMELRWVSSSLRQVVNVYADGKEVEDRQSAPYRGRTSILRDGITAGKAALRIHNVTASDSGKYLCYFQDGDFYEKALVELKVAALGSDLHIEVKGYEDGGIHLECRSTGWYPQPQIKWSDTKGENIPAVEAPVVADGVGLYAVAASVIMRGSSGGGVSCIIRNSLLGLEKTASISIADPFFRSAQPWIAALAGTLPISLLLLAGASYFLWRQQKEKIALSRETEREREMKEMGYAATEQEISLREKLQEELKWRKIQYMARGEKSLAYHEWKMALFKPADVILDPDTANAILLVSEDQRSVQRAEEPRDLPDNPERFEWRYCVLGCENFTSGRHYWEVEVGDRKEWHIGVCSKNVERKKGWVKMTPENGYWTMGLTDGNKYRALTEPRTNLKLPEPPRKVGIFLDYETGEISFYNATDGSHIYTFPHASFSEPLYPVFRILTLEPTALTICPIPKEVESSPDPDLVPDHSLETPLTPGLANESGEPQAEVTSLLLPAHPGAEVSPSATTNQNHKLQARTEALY
# Sequence of human BTN3A, endogenous on human cells (PBMCs; Daudi cells) (human) (O00481 30-513): as the sequence (O00481 30-513) above
molecule,measurement,setting,value
103.2 chimeric antibody VH0/Vκ0,Theoretical Max binding (MFI),[1],19600 MFI
same,EC50,[2],0.019 mg/L
same,Kd,[3],0.0403 nM
same,Relative KD to 103.2 chimeric,[3],1
same,Theoretical Max binding (MFI),[4],8950 MFI
same,Theoretical Max binding (MFI),[5],5940 MFI
same,Theoretical Max binding (MFI),[6],5150 MFI
same,EC50,[7],0.014 mg/L
same,EC50,[8],0.012 mg/L
same,EC50,[9],0.013 mg/L
same,Kd,[10],0.106 nM
same,Relative KD to chimeric,[10],1
same,koff,[10],8.98e-05 s⁻¹
same,kon,[10],845000 M⁻¹ s⁻¹
"103.2 humanized variant VH4/Vκ4 (antibody, V domains shown, also called H4K4; 103.2 VH4/V κ 4) VH: QVQMQQSGAEVKKPGASVKVSCKASGYAFTSYLIHWIKQRPGQGLEWIGVINPRSGDSHYNEKFKDRVTMTADQSISTAYMELSRLRSDDTAVYYCARSDYGAYWGQGTLVTVSS VL: EIVLTQSPATLSVSPGERATLSCRASQSISNNLHWYQQKPGQAPRLLIKYASQSAFGIPARFSGSGSGTEFTLTISSLQSEDFAVYFCQQSNSWPHTFGQGTKLEIK","IC50 (µg/ml), inhibition of γδ T cell degranulation (CD107a/b) against Daudi cells",[11],0.0121 µg/mL
same,Theoretical Max binding (MFI),[4],8560 MFI
same,Theoretical Max binding (MFI),[5],5820 MFI
same,Theoretical Max binding (MFI),[6],4970 MFI
same,EC50,[7],0.013 mg/L
same,EC50,[8],0.011 mg/L
same,EC50,[9],0.012 mg/L
same,EC50,[12],0.017 mg/L
same,Kd,[13],0.054 nM
same,Relative KD to 103.2 chimeric,[13],1.3 ratio
same,Kd,[14],0.108 nM
same,Relative KD to chimeric,[14],1 ratio
same,koff,[14],8.33e-05 s⁻¹
same,kon,[14],770000 M⁻¹ s⁻¹
"mAb1 (Fc-silenced humanized 103.2 IgG1) (antibody, V domains shown, Fc-silenced human IgG1, kappa; also called humanized 103.2 Fc-silenced IgG1; Hu103.2) VH: QVQMQQSGAEVKKPGASVKVSCKASGYAFTSYLIHWIKQRPGQGLEWIGVINPRSGDSHYNEKFKDRVTMTADQSISTAYMELSRLRSDDTAVYYCARSDYGAYWGQGTLVTVSS VL: EIVLTQSPATLSVSPGERATLSCRASQSISNNLHWYQQKPGQAPRLLIKYASQSAFGIPARFSGSGSGTEFTLTISSLQSEDFAVYFCQQSNSWPHTFGQGTKLEIKR",binding result,[15],binds
same,binding result,[16],binds
